Data published in patent US20250011363A1, “OPTIMIZED SHORTENED PEPTIDE THAT BINDS TO ACETYLCHOLINE RECEPTOR, AND USE THEREOF” (SKINMED CO., LTD., priority 2021, published 2025).

Each substance was assayed against acetylcholine receptor (Homo sapiens, UniProt P02708) (assay: SPR binding affinity (RU) of optimized 5mer/6mer/7mer peptides, Examples 6-7). Conditions: SPR, Resonance Units; peptides tested at 10 μM; 6mer-2 Top sequence (Table 12).
Sequence of acetylcholine receptor (P02708 21-457): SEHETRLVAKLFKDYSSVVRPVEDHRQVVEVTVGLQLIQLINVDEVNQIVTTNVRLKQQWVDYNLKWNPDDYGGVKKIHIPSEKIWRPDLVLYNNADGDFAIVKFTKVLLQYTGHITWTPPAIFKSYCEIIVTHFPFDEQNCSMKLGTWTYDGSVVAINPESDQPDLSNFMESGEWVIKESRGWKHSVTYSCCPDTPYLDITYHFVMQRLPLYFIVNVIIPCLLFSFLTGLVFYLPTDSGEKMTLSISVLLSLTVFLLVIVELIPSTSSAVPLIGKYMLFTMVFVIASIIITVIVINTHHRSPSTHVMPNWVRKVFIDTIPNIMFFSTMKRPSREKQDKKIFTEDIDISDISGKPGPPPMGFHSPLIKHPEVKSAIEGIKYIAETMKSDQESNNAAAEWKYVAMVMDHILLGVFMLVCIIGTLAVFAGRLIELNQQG
Summary of the method: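 Synthetic 5mer and 6mer peptides, built from frequent or infrequent amino-acid combinations, were tested at 10 μM for binding to the human acetylcholine receptor by surface plasmon resonance. Binding is reported in response units (RU).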
With 6mer-2-205 (KSFQRK) the Binding affinity was 147 Ru.
Substance 6mer-2-206 (KWQYKK) has a Binding affinity of 148 Ru.
With 6mer-2-207 (KWVSKR) the Binding affinity was 153 Ru.
For 6mer-2-208 (RSQQRK), the Binding affinity was 128 Ru.
6mer-2-209 (RLYYRK) gave a Binding affinity of 148 Ru.
6mer-2-210 (RSQSRR) showed a Binding affinity of 128 Ru.
Work on 6mer-2-211 (RGLSRR) yielded a Binding affinity of 135 Ru.
For 6mer-2-212 (KWQLRR), the Binding affinity was 148 Ru.
In the case of 6mer-2-213 (KSILRR), the Binding affinity is reported as 142 Ru.
For 6mer-2-214 (RWRSRK), the Binding affinity was 139 Ru.
With 6mer-2-215 (RLYYRR) the Binding affinity was 123 Ru.
In the case of 6mer-2-216 (KGILKK), the Binding affinity is reported as 126 Ru.
Work on 6mer-2-217 (KLFQKK) yielded a Binding affinity of 135 Ru.
For 6mer-2-218 (KGVSKK), the Binding affinity was 147 Ru.
Work on 6mer-2-219 (RGVSKR) yielded a Binding affinity of 153 Ru.
6mer-2-220 (KVYSKR) was tested, and the Binding affinity was 135 Ru.
Work on 6mer-2-221 (KQVRKK) yielded a Binding affinity of 153 Ru.
With 6mer-2-222 (RVVYRK) the Binding affinity was 127 Ru.
Work on 6mer-2-223 (KQLTRR) yielded a Binding affinity of 142 Ru.
6mer-2-224 (RLFLKR) gave a Binding affinity of 148 Ru.
For 6mer-2-225 (KRLLRR), the Binding affinity was 145 Ru.
Substance 6mer-2-226 (RLLCKR) has a Binding affinity of 154 Ru.
6mer-2-227 (KLQRRK) showed a Binding affinity of 147 Ru.
In the case of 6mer-2-228 (KGQCKK), the Binding affinity is reported as 141 Ru.
In the case of 6mer-2-229 (RWQSKK), the Binding affinity is reported as 127 Ru.
In the case of 6mer-2-230 (RWIQRR), the Binding affinity is reported as 135 Ru.
6mer-2-231 (KGISKK) gave a Binding affinity of 144 Ru.
6mer-2-232 (KQFTRK) showed a Binding affinity of 135 Ru.
6mer-2-234 (RSQTKR) was tested, and the Binding affinity was 142 Ru.
Substance 6mer-2-235 (KLVRKK) has a Binding affinity of 136 Ru.
Work on 6mer-2-236 (KWQQKK) yielded a Binding affinity of 131 Ru.
For 6mer-2-237 (RLVYKR), the Binding affinity was 123 Ru.
For 6mer-2-238 (RRRRRK), the Binding affinity was 142 Ru.
6mer-2-239 (RGQYKK) gave a Binding affinity of 125 Ru.
Substance 6mer-2-240 (RRRCRK) has a Binding affinity of 142 Ru.
In the case of 6mer-2-241 (KQLTKR), the Binding affinity is reported as 135 Ru.
Work on 6mer-2-242 (KSQRRR) yielded a Binding affinity of 135 Ru.
Substance 6mer-2-243 (KRVLKR) has a Binding affinity of 148 Ru.
6mer-2-244 (RRFSKR) showed a Binding affinity of 139 Ru.
6mer-2-245 (RSLSKR) was tested, and the Binding affinity was 135 Ru.
Work on 6mer-2-246 (KWISKK) yielded a Binding affinity of 123 Ru.
6mer-2-247 (KGYQKK) gave a Binding affinity of 146 Ru.
6mer-2-248 (RSYTRR) gave a Binding affinity of 154 Ru.
6mer-2-249 (RGLRKR) gave a Binding affinity of 136 Ru.
Work on 6mer-2-250 (KRRRKK) yielded a Binding affinity of 145 Ru.
Substance 6mer-2-251 (KSQTKR) has a Binding affinity of 142 Ru.
With 6mer-2-252 (KVFRKK) the Binding affinity was 148 Ru.
For 6mer-2-253 (KLRSRR), the Binding affinity was 145 Ru.
6mer-2-254 (KRIQRR) gave a Binding affinity of 148 Ru.
With 6mer-2-255 (RLRRKK) the Binding affinity was 139 Ru.
6mer-2-256 (KSQQKR) was tested, and the Binding affinity was 142 Ru.
For 6mer-2-257 (KRFCRK), the Binding affinity was 144 Ru.
6mer-2-258 (KRIYRR) showed a Binding affinity of 125 Ru.
For 6mer-2-259 (RVQSKR), the Binding affinity was 128 Ru.
In the case of 6mer-2-260 (RRFCKR), the Binding affinity is reported as 142 Ru.
With 6mer-2-261 (RWYTKK) the Binding affinity was 121 Ru.
6mer-2-262 (KWILKR) showed a Binding affinity of 142 Ru.
6mer-2-263 (RRICKR) was tested, and the Binding affinity was 145 Ru.
6mer-2-264 (KSQLKR) gave a Binding affinity of 127 Ru.
6mer-2-265 (RRQTRK) gave a Binding affinity of 135 Ru.
For 6mer-2-266 (RWQTKK), the Binding affinity was 131 Ru.
With 6mer-2-267 (KLYSRR) the Binding affinity was 141 Ru.
With 6mer-2-268 (RQICKK) the Binding affinity was 139 Ru.
6mer-2-269 (KWVQRK) gave a Binding affinity of 123 Ru.
6mer-2-270 (KSRLRR) showed a Binding affinity of 148 Ru.
